Measurements from doi:10.1101/2025.11.12.687969 (bioRxiv, 2025).

Biological target: EGFP–TDP-43 (human, UniProt Q13148 1-414)
Assay: co-IP

reduction of the association index relative to WT (log2): 0.77 log2 units
B1: Myc–TDP-43 ΔNLS (natural protein, human, UniProt Q13148-1 1-414, looked up)
chain: MSEYIRVTEDENDEPIEIPSEDDGTVLLSTVTAQFPGACGLRYRNPVSQCMRGVRLVEGILHAPDAGWGNLVYVVNYPKDNAAAMDETDASSAVKVKRAVQKTSDLIVLGLPWKTTEQDLKEYFSTFGEVLMVQVKKDLKTGHSKGFGFVRFTEYETQVKVMSQRHMIDGRWCDCKLPNSKQSQDEPLRSRKVFVGRCTEDMTEDELREFFSQYGDVMDVFIPKPFRAFAFVTFADDQIAQSLCGEDLIIKGISVHISNAEPKHNSNRQLERSGRFGGNPGGFGNQGGFGNSRGGGAGLGNNQGSNMGGGMNFGAFSINPAMMAAAQAALQSSWGMMGMLASQQNQSGPSGNNQNQGNMQREPNQAFGSGNNSYSGSNSGAAIGWGSASNAGSGSGFNGGFGSSMDSKSSGWGM
